For the assay, the target named is T1, CD276, endogenous in A375 melanoma cells (human, UniProt Q5ZPR3 29-534, poly-LacNAc glycosylation added by B3GNT2 (sites not given)).
T1 construct: whole, on cells; On fixed A375 cells in flow cytometry; In the co-IP it comes from the lysate of these cells; also called B7H3
T1 sequence (looked up): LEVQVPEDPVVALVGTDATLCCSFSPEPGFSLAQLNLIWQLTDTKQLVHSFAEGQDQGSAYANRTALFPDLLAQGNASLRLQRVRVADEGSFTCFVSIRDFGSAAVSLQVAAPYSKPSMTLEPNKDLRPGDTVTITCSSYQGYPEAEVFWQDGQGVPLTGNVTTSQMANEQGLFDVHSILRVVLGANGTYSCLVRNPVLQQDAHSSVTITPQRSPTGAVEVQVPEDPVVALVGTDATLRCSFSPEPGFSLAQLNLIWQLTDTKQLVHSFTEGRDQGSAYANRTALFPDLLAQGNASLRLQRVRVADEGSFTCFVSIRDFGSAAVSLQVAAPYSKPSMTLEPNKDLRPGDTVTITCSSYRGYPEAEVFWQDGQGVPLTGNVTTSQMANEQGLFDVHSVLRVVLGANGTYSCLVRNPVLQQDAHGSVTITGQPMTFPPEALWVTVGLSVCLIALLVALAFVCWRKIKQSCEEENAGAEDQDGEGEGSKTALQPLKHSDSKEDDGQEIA
Briefly: flow cytometry of TREML2 Fc chimera on fixed A375 cells with CD276 knocked down by CRISPR.

B1: TREML2 recombinant Fc chimera protein (R&D Systems 3259-TL-050) (Fc fusion, UniProt Q5T2D2 19-268, looked up)
chain: GPSADSVYTKVRLLEGETLSVQCSYKGYKNRVEGKVWCKIRKKKCEPGFARVWVKGPRYLLQDDAQAKVVNITMVALKLQDSGRYWCMRNTSGILYPLMGFQLDVSPAPQTERNIPFTHLDNILKSGTVTTGQAPTSGPDAPFTTGVMVFTPGLITLPRLLASTRPASKTGYSFTATSTTSQGPRRTMGSQTVTASPSNARDSSAGPESISTKSGDLSTRSPTTGLCLTSRSLLNRLPSMPSIRHQDVYS
notes: Bought reagent; also called TLT2; Fc part of the bought chimera not given
Regarding B1, the binding result was “no binding (tested: 25 µg/mL)”.

These data come from patent publication US20240261333A1 (published 2024).
